Source: the nanobody polyreactivity screen of Harvey et al. (2022)

Assay: yeast display, Sf9 membrane polyspecificity reagent, FACS + sequencing; frameworks hold sequencing errors
Procedure, shortened: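 After 36–48 hours of galactose induction, yeast (Saccharomyces cerevisiae BJ5465) displaying a synthetic nanobody library were stained at 4 °C for 1 hour with 10% biotinylated, detergent-solubilized Sf9 membrane reagent. Streptavidin microbeads enriched the stained cells before FACS sorting into low and high (top ~1%) gates on anti-HA and streptavidin fluorescence. Each clone's polyreactivity label reflects its gate of origin.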

Row | Sequence | polyreactivity (PSR sort gate)
1 | QVQLVESGGVLVQAGGSLRLSCAASGSIFYYNAMGWYRQAPGKERELVATITGGNGTYYADSVKGRFTISRDNAKNTVYLQMNSLKPEVTAVYYCARDTDPQSSRSSDYDYWGQGTQVTVSS | low polyreactivity
2 | QVQLVESGGGLVQAGGSLRLSCAASGSTFGWYTMGWYRQAPGKERELVAAITSRGTRTSYADSVKGRFTISRDNAKNTVYLQMNSLKPEDTAVYYCAARVFRGLGEYYWGQGTQVTVSS | high polyreactivity
3 | QVQLVESGGGLVQAGGSLRLSCAASGRIFSGYAMGWYRQAPGKERELVAAITSGGSTNYADSVKGRFTISRDNAKNTVYLQMNSLKPVDTAVYYCAKYYFQYKHDYWGQGTQVTVTS | low polyreactivity
4 | QVQLVESGGGLVQAGGSLRLSCAASGSIFHFYAMGWYRQAPGKERELVAAITSGTSTYYADSVKGRFTISRDNAKNTVYLQMNSLKPEDTAVYYCAAEASHYYYNAYPSYGGSDYWGQGTQVTVSS | low polyreactivity
5 | QVQLVESGGGLVQAGGSLRLSCAASGLTFTSYAMGWYRQAPGKERELVAAITSGGSTYFADSVKGRFTISRDNAKNTVYLQMNSLKPEDTAVYYCNVTVYTRWYRSHSFWSTFRMDYWGQGTQVTVSS | low polyreactivity
6 | QVQLVESGGGLVQAGGSLRLSCAPSGLIFAHYDMGWYRHAPGKERELVAGITSGGSTNYADSVKGRFTISRDNAKITVYLQMNSQKPEYTAVYYCNADRAGFLGFYLYDYWGQGTQVTVSS | low polyreactivity
7 | QVQLVESGGGLVQAGGSLRLSCAASGIIFYHYAMGWYRQAPGKEREFVAAITWDGGNTYYADSVKGRFTISRDNAKNTVYLQMNSLKPEDTAVYYCNTDRGPVKVSPLYESWGQGTQVTVSS | low polyreactivity
8 | QVQLVESGGGLVQAGGSLRLSCAASGSTFRHYAMGWYRQAPGKERELVAVISWGGTSTYYADSVKGRFTISRDNAKNTVYLQMKSLKPEDTAVYYCNKAYFPIFKGYEMYYWGQGTQVTVSS | low polyreactivity
9 | QVQLVESGGGLVQAGGSLRLSCAASGSTFYDYAMGWYRQAPWKERELVAAITSGGSTYADSVKGRFTISRYNAKNTVYLQMNSLKPEDTAVYYCNKDFVVEYWWHHVYVYYYLGDYWGQGTQVTVSS | low polyreactivity
10 | QVQLVESGGGLDQARGSLRLSCAASGRIFWRYAMGWYRQAPGKERELVASISSGGSTNYADSVKGRFTISRDNAKNTVYLQMNSLKPEDTAVYYCNAQAWHLGVITGRWNRYEYWGQGTQVTVSS | high polyreactivity
11 | QVQLVESGGGLVQAGGSLRLSCAASGRTFARYAKGWYRQAPGKERELVAVISRTGSTYYADSVKGRFTISRDNAKNTVYLQMNSLKPEDTAVYYCATVYYYLAYGWSYSDMDYWGQGTQVTVSS | high polyreactivity
12 | QVQLVESGGGLVQAGGSLRLSCAASGRTFRGNVMGWYRQAPGKEREFVAAITKSDGSTYYADSVKGRFTISRDNAKNTVYLQMNSLKPEDTAVYYCAARTARTGWPWFRYDYWGQGTQVTVSS | low polyreactivity
13 | QVQLVESGGGLVQAGGSLRLSCAASGNTLHVYAMGWYRQAPGKERELVARITGGGRTYYADSVKGRFTISRDNAKNTVYLQMNSLKTEDTAVYYCATDYYGHKVLYDYWGQGTQVTVSS | low polyreactivity
14 | QVQLVESGGGLVQAGGSLRLRCAASGRIFKSYAMGWYRQAPGKERELVAAINWSGGSTYYADSVKGRFTISRDNAKNTVYLQMNSLKPEDTAVYYCNALYAVRSYDSWGQGTQVTVSS | high polyreactivity
15 | QVQLVESGGGLVQAGGSLRLSCAASGNIFDTNAMGWYRQAPGKERELVATITQRGGTTYYADSVKGRFTISRDNAKNTVYLQINILKPEDTAVYYCNAGPVRLPYDSWGQGTQVTVSS | low polyreactivity
16 | HVQLVESGGGVVQAGGSLRLSCAASGIIFYYYTMGWYRHAPGKQRELVAAISTSGGRTYYADSVKGRFTISRDTAKNTVYLQMNSLKPEDTAVYYCNARSRHTTLDYWGQGTQVTVSS | high polyreactivity
17 | QVHLVESGGGLVQAGGSLRLSCAASGRTFFQYAMGWYTQAPGKERELVAAIRWSDSTYYADSVKGRFTISRDNAKNTVYLQMNSLKPEDTAVYYCAKTYRYYRTMDYWGQGTQVTVSS | low polyreactivity
18 | QVQLVESGGGLVQAGGSLRLSCAASGSIFPKYAMGWYRQAPGKERELVAAITSSGGRTYYADSVKGRFTISRDNAKNTVYLQMNSLKPEDTAVYYCAARSPRASGNSDYWGQGTQVTVSS | high polyreactivity
19 | QVQLVESGGGLVQAGGSLRLSCAASGIIFINYVKGWYRQAPGKESELVAAITGSGSSTYYADSVKGRFTISRDNAKNTVYLQMNSLKPEDTAVYYCAADNPRVRFLYYYWGQGTQVTVSS | high polyreactivity
20 | QVQLVESGGGLVQAGGSLRLSCAASGRIFSFYAMGWYRQAPGKERELVATISDGGATTYYADSVKGRFTISRDNAKNTVYLQMNSLKPEDTAVYYCAADKRGRPGLPDYDSWGQGTQVTVSS | low polyreactivity
21 | QVQLVESGGGLVQAGGSLRLSCAASGRSIVGYTMGWYTQAPGKERELVAAITSGGSTYYADSVKGRFTISRDNAKNTVYLQMISLKPEDTAVYYCSAYVRYSTPGKLYQYGYWGQGTQVTVSS | high polyreactivity
22 | QVQVVESGGGLVKAAGSLGLSCSASGLNFRFYTMGWYRQAPGKERELVAAISTSGGSTYYADSVKGRFTISRDNAKNNVFLQMNSLKPEDTAVYYCIAVYAFNGYDYWGQGTQVTVSS | low polyreactivity

Row | Sequence | polyreactivity (PSR sort gate)
23 | QVQLVESWGGLFQAGGTLRLSCAASGRTFIGYDMEWYRQAPGKERELVATISWNGADTYYADSVKGRYTISRDNAKNTVYLKMNSLKPEDTEVYYCAAERENGDHYRYYYWGQGTQVTVSS | low polyreactivity
24 | QVQLVESGGGIVQAGGSLRLSCAASGSTFDYYAMGWYRQAPGKEMELVAGISASGGSTYYADSVKGRFTISRDNAKNTVYLQMNSLKPEDTAVYYWASYYKPPGYDYWGQGTQVTVSS | low polyreactivity
25 | QVQLVESGGGLVQAGGSLRLSCAASGRILSYNAMGCYRQAPGKERELVAGISWSGGSTYYADSVKGRFTISRDNAKNTVYLQMNSLKPEDTAVYYCNKLQGLTWYNSPYGYWGQGTQVTVSS | high polyreactivity
26 | QVQLVESGGCSVQAGGSLRLICAASGYTFYINAMGWYRPAPGKERELVAVITWSSGSTYYADSVKGRFTISRDNAKNTVYLQMYSLKAEDTAVYYCAADVTYEDGAWTIQYDYWGQGTQVTVSS | high polyreactivity
27 | QVQLVESGGALVQAGGSLRLSCAASGRTFYFYTMGWYRQAPGKERDLVAAISWSGGSTYYADSVKGRFTISRDTAKNNFYLQMKRLKPEDTAVYYCAASSRWEQSKDQFYYWGQGTHVTVSS | low polyreactivity
28 | QVQLVESGGGLVQAGGSLRLSCAASGSTIATYTMGWYRQAPGKERELVAAISVSGSRTYYADSVKGRFTISRDNAKNTVYLQMNSLIPEDTAVYYCNADPPVKLYLYDYWGQGTQVTVSS | high polyreactivity
29 | QVQLVESAGGLVQAGGSLRLSCAASVSIFFIYARGWYRQAPGKERELVATISRSDVSTFYGDSVKGRFTISRDNAKNTVYLQMNSLKPEDTAVYYCAAEWSPPEPIQLYGYWGQGTQVTVSS | high polyreactivity
30 | QVQLVESGGGLVQAGGSLRLSCAASGRIFSHTVMGWYRQAPGKEGELVADISSSGGSTYYADSVKWRFTISRDNAKNTVDFQKNSLKPEYTAVYYCAAAPWASGTDEYWGHGTQVTVSS | low polyreactivity
31 | QVQLVDSGGGLVQAGGSLRLSCAASGFTFYSYAMGWYRPAPGKERELFAAISKSGGRSYYADSVKGRFTISRDNAKNTVYLQMKSLKPEDTGVYYCNTYGAFRSLETYDYWGQGSQVTVSS | high polyreactivity
32 | QVQLVESGGGLVQAGGSLRLSCAASRIFRGYAMGWYRQAPGKERELVAAIDRGVSTYYADSVKGRFTISRDNAKNTVYLQMNSRKPEDTAVYYCAVEYWEPYDMDYWGQGTQVTVSS | high polyreactivity
33 | QVQLVESGGGLVQAGGSLRLSCAASGRTFKVYAMGWYRPAPGKERELVAAISGSGGSTYYADSVKGRFTISRDNAKNTVYLQMNSLKPEDTAVYYCATDPSAPYTQLSSYYYWGQGTQVTVSS | low polyreactivity
34 | QFQLVESGVVLVQAAASLRLSCAASGIIFQRNDMGWNRQAPGKETDLVANIRDGGITNADSVKGRFTISRDNAKNTVYLQMNCLKPEDTAVYYCARDDTSPGYGDQSSNAAYYYWGQGTQVTVSS | low polyreactivity
35 | QVQLVESGGGLVQAGGSLRLSCAASGRTFLYYAMGWESQGPGKERELVAAITGRGGSTYSADSVKGRFTISRDNAKNTVYLQMNILKPEDTAVYYCAARDNWIRRDGYWGQGTQVTVSS | high polyreactivity
36 | QVQLVESGGGLVQAGGSLRLSCGASGRTFYSYAMGWYRQEHGKERELVATITNGDTTNYADSVKGRFTISRDNAKNTVYLQMNSLKQEDTAVYYCAKDISPGYDEYDYWGQGTQVTVSS | low polyreactivity
37 | QVQLVESGGGLVQAGGSLRLSCAASGITFCYYVMGWYRQAPGKERELVAAISSGSSTYYADSVKGRFTISRDNAKNTVYLQMNSLKPEDTAVYYCAAESVYWLEFRYYYWGQGTQVTVSS | low polyreactivity
38 | QVQLVESGGGLVQAGGSLRLSCAASGSTFRIYAMGWYRQAPGKERELVAAISKRGGSTYYADSVKGRFTISRDNAKNTVYLQMNSLKPEDTAVYYCAKPPYSQYEFDYWGQGTQVTVSS | high polyreactivity
39 | QVQLVESGGGLVQAGGSLRLSCADSRSTFYIYAMGWYRQAPGKERELVAAIRRSGGSTYYADSVKGRFTISRDNAKNTVYLQMISLKPEDTAVYYCATRYLWRPRPYDYWGQGTQVTVSS | high polyreactivity
40 | QVQLVESWGGLVQAGGSLRLSCAASGNTIIRYAMGWYSQAPGKERELVAAISRSGGRTYYADSVKGRFTISRDNAKNTVYLQMNSLKPEDTAVYYCAAKIYIPRGYDYWGQGTQVTVSS | high polyreactivity
41 | QVQLVESGGGLVQAGGSLRLSCAASGITFYVYAMGWYRQAPGKERELVAANSSGGGSTYYADSVKGRFTISRDNAKNTVYLQMNSLKPEDTAVYYCNKLFPGTYDGAHGYWGQGTQVTVSS | low polyreactivity
42 | QVQLVESGGALVQAGGSLRLSCAASGGTFYTYAMGWYRQAPGKERELVATITRRGGSTYYADSVKGRFTISRDNAKNTVYLQMKSLKPEDTAVYYCAARSYISTRPIMGYWGQGTQVTVSS | high polyreactivity
43 | QVQLVESGGGLVQAGGSLRLSCAASGRIFAFYAMGGYRQAPGKERELVAAITSGGSTKYADSVKGRFTISRDNAKNTVYLHMKSLKPEDTAVYYSAAQYRYQRYSDAMEYWGQGTQVTVSS | high polyreactivity
